Results on 15 variants are retold here after the RNAGym collection of RNA variant scans (doi:10.1093/molbev/msab373).

The chains are these.
B1: Azoarcus group I ribozyme (parent)
chain: GUGCCUUGCGCCGGGAAACCACGCAAGGGAUGGUGUCAAAUUCGGCGAAACCUAAGCGCCCGCCCGGGCGUAUGGCAACGCCGAGCCAAGCUUCGGCGCCUGCGCCGAUGAAGGUGUAGAGACUAGACGGCACCCACCUAAGGCAAACGCUAUGGUGAAGGCAUAGUCCAGGGAGUGGCGAAAGUCACACAAACCGG

In this series the parent is B1. Put plainly: reverse-splicing fitness (ratio to wild type); higher = more active; in vitro selection; Mg2+ level not given. The method, boiled down:
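An in vitro group I ribozyme library with randomized positions was T7-transcribed and gel-purified. In triplicate, 10 pmol RNA in EPPS pH 7.5 was reacted with 50 pmoles of a 30-nt RNA substrate for 1 h at 37 °C across several added MgCl2 levels (1–48 mM), then stopped with EDTA. Products were reverse transcribed from a substrate-complementary primer, PCR-amplified and sequenced (HiSeq 4000). Fitness is a variant's read proportion after selection over that before, normalised to wild type.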
Turning to GUGCCUUGCGCCGGGAAACCACGCAAGGGAUGGUGUCAAAUUCGGCGAAACCUAAGCGCCCGCCCGGGCGUAUGGCAACGCAGAGCCAAGCUUCGGCGCCUGCGCCGAUGUAGGUGUAGUGACUAGACGGCACCCACCUAAGGCUAACGUUAUGGUGAAGGCAUAGUCUAGGGAGGGGCGAAAGUCACACAAACCGG [C82A A111U A120U A145U C150U C169U U176G], the reverse-splicing fitness was determined as 0.00299.

Take GUGCCUUGCGCCGGGAAACCACGCAAGGGAUGGUGUCAAAUUCGGCGAAACCUAAGCGCCCGCCCGGGCGUAUGGCAACGCAGAGCCAAGCUUCGGCGCCUGCGCCGAUGAAGGUGUAGCGACUAGACGGCACCCACCUAAGGCUAACGUUAUGGUGAAGGCAUAGUCUAGGGAGGGGCGAAAGUCACACAAACCGG [C82A A120C A145U C150U C169U U176G]: the reverse-splicing fitness stood at 0.00474.

In the case of GUGCCUUGCGCCGGGAAACCACGCAAGGGAUGGUGUCAAAUUCGGCGAAACCUAAGCGCCCGCCCGGGCGUAUGGCAACGCCGAGCCAAGCUUCGGCGCCUGCGCCGAUGUAGGUGUAGUGACUAGACGGCACCCACCUAAGGCUAACGCUAUGGUGAAGGCAUAGUCAAGGGAGAGGCGAAAGUCACACAAACCGG [A111U A120U A145U C169A U176A], the reverse-splicing fitness was 0.00253.

As to GUGCCUUGCGCCGGGAAACCACGCAAGGGAUGGUGUCAAAUUCGGCGAAACCUAAGCGCCCGCCCGGGCGUAUGGCAACGCGGAGCCAAGCUUCGGCGCCUGCGCCGAUGAAGGUGUAGGGACUAGACGGCACCCACCUAAGGCCAACGCUAUGGUGAAGGCAUAGUCAAGGGAGCGGCGAAAGUCACACAAACCGG [C82G A120G A145C C169A U176C], the reverse-splicing fitness came to 0.0123.

GUGCCUUGCGCCGGGAAACCACGCAAGGGAUGGUGUCAAAUUCGGCGAAACCUAAGCGCCCGCCCGGGCGUAUGGCAACGCAGAGCCAAGCUUCGGCGCCUGCGCCGAUGAAGGUGUAGUGACUAGACGGCACCCACCUAAGGCGAACGGUAUGGUGAAGGCAUAGUCGAGGGAGUGGCGAAAGUCACACAAACCGG [C82A A120U A145G C150G C169G]: the reverse-splicing fitness came out at 0.00686.

With GUGCCUUGCGCCGGGAAACCACGCAAGGGAUGGUGUCAAAUUCGGCGAAACCUAAGCGCCCGCCCGGGCGUAUGGCAACGCUGAGCCAAGCUUCGGCGCCUGCGCCGAUGCAGGUGUAGAGACUAGACGGCACCCACCUAAGGCUAACGAUAUGGUGAAGGCAUAGUCCAGGGAGAGGCGAAAGUCACACAAACCGG [C82U A111C A145U C150A U176A], the reverse-splicing fitness stood at 0.0153.

With GUGCCUUGCGCCGGGAAACCACGCAAGGGAUGGUGUCAAAUUCGGCGAAACCUAAGCGCCCGCCCGGGCGUAUGGCAACGCAGAGCCAAGCUUCGGCGCCUGCGCCGAUGAAGGUGUAGGGACUAGACGGCACCCACCUAAGGCUAACGCUAUGGUGAAGGCAUAGUCCAGGGAGCGGCGAAAGUCACACAAACCGG [C82A A120G A145U U176C], the reverse-splicing fitness amounted to 0.0146.

As to GUGCCUUGCGCCGGGAAACCACGCAAGGGAUGGUGUCAAAUUCGGCGAAACCUAAGCGCCCGCCCGGGCGUAUGGCAACGCCGAGCCAAGCUUCGGCGCCUGCGCCGAUGCAGGUGUAGAGACUAGACGGCACCCACCUAAGGCCAACGGUAUGGUGAAGGCAUAGUCUAGGGAGAGGCGAAAGUCACACAAACCGG [A111C A145C C150G C169U U176A], the reverse-splicing fitness was 0.00817.

As for GUGCCUUGCGCCGGGAAACCACGCAAGGGAUGGUGUCAAAUUCGGCGAAACCUAAGCGCCCGCCCGGGCGUAUGGCAACGCCGAGCCAAGCUUCGGCGCCUGCGCCGAUGAAGGUGUAGAGACUAGACGGCACCCACCUAAGGCUAACGAUAUGGUGAAGGCAUAGUCCAGGGAGAGGCGAAAGUCACACAAACCGG [A145U C150A U176A], the reverse-splicing fitness was 0.4.

With GUGCCUUGCGCCGGGAAACCACGCAAGGGAUGGUGUCAAAUUCGGCGAAACCUAAGCGCCCGCCCGGGCGUAUGGCAACGCAGAGCCAAGCUUCGGCGCCUGCGCCGAUGGAGGUGUAGGGACUAGACGGCACCCACCUAAGGCUAACGGUAUGGUGAAGGCAUAGUCAAGGGAGCGGCGAAAGUCACACAAACCGG [C82A A111G A120G A145U C150G C169A U176C], the reverse-splicing fitness is 0.0101.

GUGCCUUGCGCCGGGAAACCACGCAAGGGAUGGUGUCAAAUUCGGCGAAACCUAAGCGCCCGCCCGGGCGUAUGGCAACGCCGAGCCAAGCUUCGGCGCCUGCGCCGAUGAAGGUGUAGAGACUAGACGGCACCCACCUAAGGCGAACGUUAUGGUGAAGGCAUAGUCAAGGGAGCGGCGAAAGUCACACAAACCGG [A145G C150U C169A U176C]: the reverse-splicing fitness was 0.0527.

As to GUGCCUUGCGCCGGGAAACCACGCAAGGGAUGGUGUCAAAUUCGGCGAAACCUAAGCGCCCGCCCGGGCGUAUGGCAACGCAGAGCCAAGCUUCGGCGCCUGCGCCGAUGGAGGUGUAGUGACUAGACGGCACCCACCUAAGGCCAACGAUAUGGUGAAGGCAUAGUCUAGGGAGUGGCGAAAGUCACACAAACCGG [C82A A111G A120U A145C C150A C169U], the reverse-splicing fitness was found to be 0.00264.

As to GUGCCUUGCGCCGGGAAACCACGCAAGGGAUGGUGUCAAAUUCGGCGAAACCUAAGCGCCCGCCCGGGCGUAUGGCAACGCAGAGCCAAGCUUCGGCGCCUGCGCCGAUGGAGGUGUAGCGACUAGACGGCACCCACCUAAGGCUAACGCUAUGGUGAAGGCAUAGUCUAGGGAGAGGCGAAAGUCACACAAACCGG [C82A A111G A120C A145U C169U U176A], the reverse-splicing fitness turned out to be 0.0152.

On to GUGCCUUGCGCCGGGAAACCACGCAAGGGAUGGUGUCAAAUUCGGCGAAACCUAAGCGCCCGCCCGGGCGUAUGGCAACGCUGAGCCAAGCUUCGGCGCCUGCGCCGAUGUAGGUGUAGAGACUAGACGGCACCCACCUAAGGCGAACGGUAUGGUGAAGGCAUAGUCCAGGGAGUGGCGAAAGUCACACAAACCGG [C82U A111U A145G C150G], for which the reverse-splicing fitness is 0.0326.

Turning to GUGCCUUGCGCCGGGAAACCACGCAAGGGAUGGUGUCAAAUUCGGCGAAACCUAAGCGCCCGCCCGGGCGUAUGGCAACGCCGAGCCAAGCUUCGGCGCCUGCGCCGAUGGAGGUGUAGUGACUAGACGGCACCCACCUAAGGCGAACGAUAUGGUGAAGGCAUAGUCCAGGGAGCGGCGAAAGUCACACAAACCGG [A111G A120U A145G C150A U176C], the reverse-splicing fitness came out at 0.0581.
